Test system: patients with osteoarthritis (OA) of the knee or hip
Test: Example 3: adjudicated joint safety outcomes (patient-level and joint-level) and total joint replacements, Safety Population
Assay type: in vivo, human
Conditions: for rapidly progressive OA (types 1 and 2 combined): % of patients: any adjudicated RPOA
Text: Central radiology readers (Central Readers) may be board certified radiologists or have the international equivalent as musculoskeletal radiologists. The Central Readers may be governed by an imaging atlas and an imaging Charter which includes a specific description of the scope of their responsibilities. Central Readers may review the radiology images at Screening for assessment of eligibility (including determination of Kellgren-Lawrence Grade) and identification of exclusionary joint conditions such as rapidly progressive osteoarthritis, atrophic or hypotrophic osteoarthritis, subchondral insufficiency fractures (spontaneous osteonecrosis of the knee [SPONK]), primary osteonecrosis and pathological fractures. After start of treatment, the Central Reader may review radiology images for diagnosis of joint conditions that would warrant further evaluation by the Adjudication Committee such as possible or probable rapidly progressive osteoarthritis, subchondral insufficiency fractures (spontaneous osteonecrosis of the knee [SPONK]), primary osteonecrosis or pathological fracture.
For subjects who are identified with a possible or probable joint event (i.e., rapidly progressive osteoarthritis, subchondral insufficiency fractures, spontaneous osteonecrosis of the knee (SPONK), primary osteonecrosis or pathological fracture) and subjects undergoing total joint replacement for any reason, all images and other source documentation may be provided to the blinded Adjudication Committee for review and adjudication of the event. The Adjudication Committee's assessment of the event may represent the final classification of the event.
This study was designed with a total (post-randomization) duration of 80 weeks and consisted of three periods: Screening (up to a maximum of 37 days), Double-blind Treatment (56 weeks), and Safety Follow-up (24 weeks) (FIG. 1). The Screening Period included a Washout Period (lasting 2-30 days) if required, and an Initial Pain Assessment Period (7 days prior to Randomization/Baseline; minimum 3 days).

[1] = 2.5 mg SC, observation time-adjusted analysis
[2] = 2.5 mg SC, primary outcome per subject
[3] = 5 mg SC, observation time-adjusted analysis

## tanezumab: humanized immunoglobulin G Type 2 (IgG2) monoclonal antibody directed against human nerve growth factor (NGF); SEQ ID NOs: 9 or 11 and 10
2.5 mg SC
  Observation time-adjusted incidence of patients with ≥1 reported TJR: (51.8) /1000 patient-years
  Pathological Fracture: observation time-adjusted rate: (0) /1000 patient-years
  Patients analyzed by the Adjudication Committee: n: 115
  Primary Composite Joint Safety Endpoint: rate difference vs. NSAID: 22.5
  Primary Osteonecrosis: observation time-adjusted rate: (0) /1000 patient-years
  Rapidly Progressive OA type 1: observation time-adjusted rate: (28.4) /1000 patient-years
  Rapidly Progressive OA type 1: rate difference vs. NSAID: 17.6
  Rapidly Progressive OA type 2: rate difference vs. NSAID: 1.9
  Rapidly Progressive OA: rate difference vs. NSAID: 19.6
  Secondary Composite Joint Safety Endpoint: observation time-adjusted rate: (8.8) /1000 patient-years
  Secondary Composite Joint Safety Endpoint: rate difference vs. NSAID: 3.8
  Subchondral Insufficiency Fracture: observation time-adjusted rate: (5.8) /1000 patient-years
  Subchondral Insufficiency Fracture: rate difference vs. NSAID: 1.9
  TJR: rate difference vs. NSAID: 27.2
  patients with ≥1 reported TJR: number: 53
  rapidly progressive OA (types 1 and 2 combined): % of patients: 3.2%
[1]
  Pathological Fracture: n: 0
  Primary Composite Joint Safety Endpoint: n: 38
  Primary Osteonecrosis: n: 0
  Rapidly Progressive OA type 1: n: 29
  Rapidly Progressive OA: n: 32
  Secondary Composite Joint Safety Endpoint: n: 9
  Subchondral Insufficiency Fracture: n: 6
[2]
  Normal Progression of OA: %: (6.6%)
  Normal Progression of OA: n: 66
  Not enough information to determine Rapid vs. Normal Progression of OA: %: (0.2%)
  Not enough information to determine Rapid vs. Normal Progression of OA: n: 2
  Other Joint Outcome: %: (0.9%)
  Other Joint Outcome: n: 9
  Pathological Fracture: n: 0
  Primary Composite Joint Safety Endpoint: %: 3.8% and (3.8%)
  Primary Composite Joint Safety Endpoint: n: 38
  Primary Osteonecrosis: n: 0
  Rapidly Progressive OA type 1: %: (2.9%)
  Rapidly Progressive OA type 1: n: 29
  Rapidly Progressive OA type 2: %: (0.3%)
  Rapidly Progressive OA: %: (3.2%)
  Rapidly Progressive OA: n: 32
  Secondary Composite Joint Safety Endpoint: %: (0.9%)
  Secondary Composite Joint Safety Endpoint: n: 9
  Subchondral Insufficiency Fracture: %: (0.6%)
  Subchondral Insufficiency Fracture: n: 6
5 mg SC
  Observation time-adjusted incidence of patients with ≥1 reported TJR: (78.7) /1000 patient-years
  Pathological Fracture: observation time-adjusted rate: (0) /1000 patient-years
  Patients analyzed by the Adjudication Committee: n: 171
  Primary Composite Joint Safety Endpoint: rate difference vs. NSAID: 56.7
  Primary Osteonecrosis: observation time-adjusted rate: (1.0) /1000 patient-years
  Rapidly Progressive OA type 1: observation time-adjusted rate: (49.1) /1000 patient-years
  Rapidly Progressive OA type 1: rate difference vs. NSAID: 38.2
  Rapidly Progressive OA type 2: rate difference vs. NSAID: 12.9
  Rapidly Progressive OA: rate difference vs. NSAID: 51.5
  Secondary Composite Joint Safety Endpoint: observation time-adjusted rate: (21.8) /1000 patient-years
  Secondary Composite Joint Safety Endpoint: rate difference vs. NSAID: 16.9
  Subchondral Insufficiency Fracture: observation time-adjusted rate: (6.9) /1000 patient-years
  Subchondral Insufficiency Fracture: rate difference vs. NSAID: 3.0
  TJR: rate difference vs. NSAID: 54.0
  patients with ≥1 reported TJR: number: 79
  rapidly progressive OA (types 1 and 2 combined): % of patients: 6.3%
[3]
  Pathological Fracture: n: 0
  Primary Composite Joint Safety Endpoint: n: 71
  Primary Osteonecrosis: n: 1
  Rapidly Progressive OA type 1: n: 49
  Rapidly Progressive OA type 2: n: 14
  Rapidly Progressive OA: n: 63
  Secondary Composite Joint Safety Endpoint: n: 22
  Subchondral Insufficiency Fracture: n: 7
5 mg SC, primary outcome per subject
  Normal Progression of OA: %: (7.9%)

Source: US20220089710A1, “Method of Treating Signs and Symptoms of Osteoarthritis” (Pfizer Inc., priority 2019, published 2022)
